{"source": "patent US20210292393A1", "about": "(published 2021)", "binders": {"B1": {"name": "antibody 585 (antibody, V domains shown)", "VH": "QVQLVESGGGVVQPGRSLRLSCAASGFTFATYAMHWVRQAPGKGLEWVALISHDGSNKHYADSVKGRFTISRDNSKKTLYLQMNSLRAEGTAIYYCARESLEAAAPPFDYWGQGTLVTVSS", "VL": "SYELTQPPSVSVSPGQTATIICSGDKLGEKYASWYQQKPGQSPALVIYQDRKRPSGIPERFSGSNSGNTATLTISGTQAMDEADYYCQAWDSSNSVVFGGGTKLTVP"}, "B2": {"name": "antibody 290 (antibody, V domains shown)", "VH": "QVHLVQSGAEVKKPGASVKVSCAASGYTFNNYGVSWVRQAPGQGLEWMGWISASNGNTKYAQNLQGRVTMTTDTSTSTAYMELRSLRSDDTAVYYCARDLVGPTAPNYYYGMDVWGQGTAVTVSS", "VL": "QSVLTQPPSVSGAPGQRVTISCTGSSSSIGAGYDVHWYQQLPGTAPKLLIYANSNRPSGVPDRLSGSKSGTSASLAITGLQAEDEADYYCQSYDSSLSGYVFGTGTKVTVL"}, "B3": {"name": "antibody 296 (antibody, V domains shown)", "VH": "EVQLVESGGGLVQPGGSLRLSCAGSGFTLSNYWMTWVRQAPGKGLEWVANINQDASRKYYGDSVKGRFSVSRDNAKNSLYLQMNSLTAEDTGFYYCVREELPSTPGSTWGQGTLVTVSS", "VL": "QSALTQPASVSGSPGQSITISCTGTSSDIGGYNHVSWYQQHPGKAPKLMIYGVSNRPSGVSDRFSGSKSDNTASLTISGLQAEDEADYYCSSPTSRGNKVFGTGTKVTVL"}, "B4": {"name": "antibody 450 (antibody, V domains shown)", "VH": "EVQLVESGGGLVQPGGSLRLSCAASEFTFSSYWMSWVRQAPGKGLEWVANIKQDGSEKYYVDSVKGRFTISRDNAKNSLYLQMNSLRAEDTAVYYCARVGEYSGYDLFFDYWGQGTLVTVSS", "VL": "NFMLTQPHSVSESPGKTVTISYTGSSGSIASNYVQWYQQRPGSAPTTVIYEDNQRPSGVPDRFSGSIDSSSNSASLTISGLKTEDEADYYCQSYDSSNQGVFGGGTKLTVL"}, "B5": {"name": "antibody 377 (antibody, V domains shown)", "VH": "EVQLVESGGGLVKPGGSLRLSCATSGFTFRTYSMNWVRQAPGKGLEWVSSITTSRNYIYYADSVRGRFTISGDNANNSLYLQMNSLRAEDTAVYYCARVRFVRDTRKPYYFDFWGQGTLVTVSS", "VL": "not shown"}}, "key": {"[1]": {"molecular_target": "SARS-CoV-2 full length spike protein, D614G mutant (SARS-CoV-2, UniProt P0DTC2 14-1273)"}, "[2]": {"molecular_target": "SARS-CoV-2 full length spike protein, V367F mutant (SARS-CoV-2, UniProt P0DTC2 14-1273)"}, "[3]": {"molecular_target": "T1, SARS-CoV-2 full length spike protein, V483A mutant (SARS-CoV-2, UniProt P0DTC2 14-1273)", "T1 construct": "also called SARS-CoV-2 V483A mutant", "experiment": "flow cytometry, CHO cells expressing full-length spike V483A"}, "[4]": {"molecular_target": "T1, SARS-CoV-2 full length spike protein, …"}, "[5]": {"molecular_target": "T2, SARS-CoV-2 full length spike protein, D614G mutant (SARS-CoV-2, UniProt P0DTC2 14-1273)", "T2 construct": "also called SARS-CoV-2 D641G mutant", "experiment": "flow cytometry, CHO cells expressing full-length spike D614G (printed D641G)"}, "[6]": {"molecular_target": "T3, SARS-CoV-2 full length spike protein, V367F mutant (SARS-CoV-2, UniProt P0DTC2 14-1273)", "T3 construct": "also called SARS-CoV-2 V367F mutant", "experiment": "flow cytometry, CHO cells expressing full-length spike V367F"}, "[7]": {"molecular_target": "T4, SARS-CoV-2 full length spike protein, V483A mutant (SARS-CoV-2, UniProt P0DTC2 14-1273)", "remark": "listed apart in the source"}, "[8]": {"molecular_target": "T4, SARS-CoV-2 full length spike protein, …", "experiment": "flow cytometry, CHO cells expressing full-length spike V483A", "remark": "listed apart in the source"}, "[9]": {"molecular_target": "SARS-CoV-2 full length spike protein, D614G mutant (SARS-CoV-2, UniProt P0DTC2 14-1273)", "experiment": "flow cytometry, CHO cells expressing full-length spike D614G"}, "[10]": {"molecular_target": "T5, SARS-CoV-2 full length spike protein, V367F mutant (SARS-CoV-2, UniProt P0DTC2 14-1273)", "T5 construct": "also called SARS-CoV-2 V367F mutant", "experiment": "flow cytometry, CHO cells expressing full-length spike V367F", "remark": "listed apart in the source"}, "[11]": {"molecular_target": "T6, SARS-CoV-2 full length spike protein, V483A mutant, expressed on CHO cells (SARS-CoV-2, UniProt P0DTC2 14-1273)"}, "[12]": {"molecular_target": "SARS-CoV-2 full length spike protein, D614G mutant, expressed on CHO cells (SARS-CoV-2, UniProt P0DTC2 14-1273)", "experiment": "flow cytometry on CHO cells expressing spike D614G"}, "[13]": {"molecular_target": "T7, SARS-CoV-2 full length spike protein, V367F mutant, expressed on CHO cells (SARS-CoV-2, UniProt P0DTC2 14-1273)", "T7 construct": "also called SARS-CoV-2 V367F mutant", "experiment": "flow cytometry on CHO cells expressing spike V367F"}, "[14]": {"molecular_target": "T6, SARS-CoV-2 full length spike protein, …", "experiment": "flow cytometry on CHO cells expressing spike V483A"}}}
{"binder": "B1", "values": [{"measurement": "median fluorescence intensity, fold over isotype control", "setting": "[1]", "value": 7.49, "unit": "fold over isotype"}, {"measurement": "median fluorescence intensity, fold over isotype control", "setting": "[2]", "value": 33, "unit": "fold over isotype"}]}
{"binder": "B2", "values": [{"measurement": "binding result", "setting": "[3]", "value": "no binding"}]}
{"binder": "B3", "values": [{"measurement": "median fluorescence intensity, fold over isotype control", "setting": "[4]", "value": 1.27, "unit": "fold over isotype"}, {"measurement": "binding result", "setting": "[5]", "value": "no binding"}, {"measurement": "binding result", "setting": "[6]", "value": "no binding"}]}
{"binder": "B4", "values": [{"measurement": "median fluorescence fold over isotype control", "setting": "[7]", "value": 1.27, "unit": "fold over isotype"}, {"measurement": "binding result", "setting": "[8]", "value": "no binding"}, {"measurement": "binding result", "setting": "[9]", "value": "no binding"}, {"measurement": "binding result", "setting": "[10]", "value": "no binding"}]}
{"binder": "B5", "values": [{"measurement": "median fluorescence fold over isotype control", "setting": "[11]", "value": 1.09, "unit": "fold over isotype"}, {"measurement": "binding result", "setting": "[12]", "value": "no binding"}, {"measurement": "binding result", "setting": "[13]", "value": "no binding"}, {"measurement": "binding result", "setting": "[14]", "value": "no binding"}]}
